In US20170115293A1 one finds clonogenic cell survival of SUM159: radiation dose to achieve a surviving fraction of 0.1 and clonogenic cell survival of SUM159 after irradiation: dose-modifying factor data, which are given here for 1 substance.

In this test the target is FAS (CD95, APO-1) death receptor (human) (UniProt P25445). The test is described as follows: cell-based or functional assay.
Chain of UniProt P25445 (P25445 26-335): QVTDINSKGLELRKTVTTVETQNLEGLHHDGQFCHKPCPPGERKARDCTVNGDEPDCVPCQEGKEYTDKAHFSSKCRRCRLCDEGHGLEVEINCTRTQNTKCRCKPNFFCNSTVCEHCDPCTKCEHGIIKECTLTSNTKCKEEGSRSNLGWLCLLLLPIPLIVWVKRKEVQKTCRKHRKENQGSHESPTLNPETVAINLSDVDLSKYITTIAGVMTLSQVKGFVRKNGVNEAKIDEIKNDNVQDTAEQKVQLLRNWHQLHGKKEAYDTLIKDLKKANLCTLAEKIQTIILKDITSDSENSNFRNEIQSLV

With “CH11, a FAS agonistic (stimulating) antibody (monoclonal mouse antibody, cat. no. 05-201; EMD Millipore)”, the clonogenic cell survival of SUM159: radiation dose to achieve a surviving fraction of 0.1 was determined as 3.25 Gy and the clonogenic cell survival of SUM159 after irradiation: dose-modifying factor was determined as 2.5.
